Assay results reported in patent US5580712.

Target: FLAG epitope Trypsin site N-terminally tagged 9 repeat GG biopolymer (SEQ ID NO:20)

## Trypsin (type XI DPCC treated) (enzyme)
  completeness of proteolytic cleavage, from relative mobility on SDS gels: 100%
